± gives the standard error. For some of these results: This sample holds only a part of the variants without activity.
B1: glmS ribozyme (parent)
chain: AUAAAAGCGCCAGAACUACAGAAAUGUAGUUGACGAGGAGGAGGUUUAUCGAAUUUUCGGCGGAUGCCUCCAAA

Assays:
Conditions in all cases: with glucosamine-6-phosphate
glucosamine-6-phosphate [1] = variants of: B1; assay: kcat; higher = faster cleavage; RNA array
Procedure, shortened: (§1)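 Barcoded glmS ribozyme variants on sequenced MiSeq chips were transcribed in situ by E. coli RNA polymerase and tracked through a hybridised Cy3 probe at 37 °C. Glucosamine-6-phosphate (40 μM to 10 mM) in HEPES/KCl/Mg(OAc)2 buffer was flowed in, and tiles were imaged over ~14 h. Signals were normalised to baseline and to non-cleaving reference variants; per-tile medians were fit to one- or two-exponential decays to give kobs. kcat and KM came from weighted Michaelis–Menten fits across concentrations.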

glucosamine-6-phosphate [2] = variants of: B1; assay: KM; higher = weaker cofactor use; RNA array
Procedure, shortened: as §1

glucosamine-6-phosphate [3] = variants of: B1; assay: self-cleavage kobs at 2500 uM GlcN6P; higher = faster cleavage; RNA array
Procedure, shortened: as §1

glucosamine-6-phosphate [4] = variants of: B1; assay: self-cleavage kobs at 10000 uM GlcN6P; higher = faster cleavage; RNA array
Procedure, shortened: as §1

glucosamine-6-phosphate [5] = variants of: B1; assay: self-cleavage kobs at 160 uM GlcN6P; higher = faster cleavage; RNA array
Procedure, shortened: as §1

glucosamine-6-phosphate [6] = variants of: B1; assay: self-cleavage kobs at 640 uM GlcN6P; higher = faster cleavage; RNA array
Procedure, shortened: as §1

glucosamine-6-phosphate [7] = variants of: B1; assay: self-cleavage kobs at 40 uM GlcN6P; higher = faster cleavage; RNA array
Procedure, shortened: as §1

Variant | kcat (glucosamine-6-phosphate [1]) [s⁻¹] | KM (glucosamine-6-phosphate [2]) [mM] | self-cleavage kobs at 2500 uM GlcN6P (glucosamine-6-phosphate [3]) [s⁻¹] | self-cleavage kobs at 10000 uM GlcN6P (glucosamine-6-phosphate [4]) [s⁻¹] | self-cleavage kobs at 160 uM GlcN6P (glucosamine-6-phosphate [5]) [s⁻¹] | self-cleavage kobs at 640 uM GlcN6P (glucosamine-6-phosphate [6]) [s⁻¹] | self-cleavage kobs at 40 uM GlcN6P (glucosamine-6-phosphate [7]) [s⁻¹]
G13C G66A | 6.45e-05 ± 6.3e-06 | 1.63 ± 0.6 | 4.1e-05 ± 1.2e-05 | 5.46e-05 ± 1.2e-05 | – | – | –
G13U C50G A52C | 1.8e-05 ± 3e-06 | – | – | – | – | – | –
G13A A53G | 0.00138 ± 0.00018 | 4.28 ± 0.82 | 0.000498 ± 5.7e-05 | 0.000981 ± 0.00011 | 6.12e-05 ± 1.3e-05 | 0.00017 ± 2e-05 | –
A12G U56C | 0.000482 ± 5.2e-05 | 9.85 ± 1.6 | 9.57e-05 ± 1.7e-05 | 0.000244 ± 3.4e-05 | – | 3.18e-05 ± 1.4e-05 | –
A14U G43U | < 1e-05 | – | – | – | – | – | < 1e-05
G13C U31G C70U | 0.000159 ± 3.6e-05 | – | 0.000148 ± 3.9e-05 | 0.000131 ± 2.7e-05 | – | 4.2e-05 ± 1.9e-05 | –
A14C U65G C70U | 0.0014 ± 0.00044 | – | 0.000467 ± 6.2e-05 | 0.00104 ± 0.00015 | 4.59e-05 ± 1.6e-05 | 0.000315 ± 6.8e-05 | –
G13A U30G | 0.000441 ± 4.8e-05 | 6.05 ± 1.1 | 0.000144 ± 3.3e-05 | 0.000271 ± 3.9e-05 | – | 3.9e-05 ± 1e-05 | –
A12G U55C | 0.00114 ± 0.00024 | 4.74 ± 1.4 | 0.000461 ± 7.4e-05 | 0.000755 ± 9.7e-05 | 4.44e-05 ± 7.8e-06 | 0.000118 ± 1.7e-05 | –
G13U U54A | 0.00184 ± 0.00033 | 2.69 ± 0.77 | 0.00105 ± 0.00017 | 0.00144 ± 0.00015 | 0.000103 ± 1.6e-05 | 0.000283 ± 5.5e-05 | 4.3e-05 ± 9.5e-06
A14G G32C C70U | 0.000668 ± 0.00026 | – | 9.2e-05 ± 3.3e-05 | 0.000239 ± 4.4e-05 | – | – | –
A15C C70G | 7.11e-05 ± 7.6e-06 | – | 8.13e-05 ± 1e-05 | 5.86e-05 ± 9.3e-06 | 3.9e-05 ± 9.7e-06 | 6.25e-05 ± 8.5e-06 | –
A14C A48U | 5.62e-05 ± 5.4e-06 | 3.17 ± 1.2 | – | 4.26e-05 ± 7.7e-06 | – | – | –
A14G U46C | 0.0067 ± 0.0025 | – | 0.00744 ± 0.0013 | 0.00545 ± 0.002 | – | 0.00207 ± 0.00084 | 0.000504 ± 0.00011
A14G U46G | 0.0115 ± 0.0033 | 0.997 ± 0.36 | 0.0199 ± 0.0079 | 0.00927 ± 0.0027 | 0.00247 ± 0.001 | 0.00524 ± 0.0017 | 0.000421 ± 7.1e-05
A12G U31C | 0.000113 ± 7.3e-06 | 4.09 ± 0.63 | 4.42e-05 ± 9.5e-06 | 7.95e-05 ± 1.1e-05 | – | – | –

Variant | kcat (glucosamine-6-phosphate [1]) [s⁻¹] | KM (glucosamine-6-phosphate [2]) [mM] | self-cleavage kobs at 2500 uM GlcN6P (glucosamine-6-phosphate [3]) [s⁻¹] | self-cleavage kobs at 10000 uM GlcN6P (glucosamine-6-phosphate [4]) [s⁻¹] | self-cleavage kobs at 160 uM GlcN6P (glucosamine-6-phosphate [5]) [s⁻¹] | self-cleavage kobs at 640 uM GlcN6P (glucosamine-6-phosphate [6]) [s⁻¹] | self-cleavage kobs at 40 uM GlcN6P (glucosamine-6-phosphate [7]) [s⁻¹]
G13C C16G U55A G60C C70G | 1.82e-05 ± 7.2e-06 | – | – | – | – | – | –
A14G U45C | 0.00289 ± 0.0011 | – | 0.00215 ± 0.00057 | – | 0.000403 ± 9.2e-05 | 0.00149 ± 0.00031 | 0.000196 ± 4.6e-05
A14G U45G | 0.0225 ± 0.0076 | 3.45 ± 1.4 | 0.00864 ± 0.003 | 0.0175 ± 0.0071 | 0.000908 ± 0.00024 | 0.00617 ± 0.0025 | 0.000286 ± 0.0001
G13C C67A | 5.87e-05 ± 1.1e-05 | 5.93 ± 2.6 | – | 3.7e-05 ± 9e-06 | – | – | –
G13A G32A | 0.00473 ± 0.0013 | 4.73 ± 1.9 | 0.00129 ± 0.00022 | 0.00362 ± 0.00047 | 0.000204 ± 6.5e-05 | 0.000518 ± 0.00011 | 4.73e-05 ± 7.3e-06
G13U C58U C67G | 2.59e-05 ± 5.8e-06 | – | – | – | – | – | –
A14U A42G | 0.0156 ± 0.0054 | 2.71 ± 1.3 | 0.00517 ± 0.001 | 0.0147 ± 0.0018 | 0.00064 ± 0.00015 | 0.00347 ± 0.00055 | 0.000273 ± 3.1e-05
A14G G41C | 0.00141 ± 0.00048 | – | 0.000737 ± 0.00013 | 0.00105 ± 0.00013 | 4.38e-05 ± 1.7e-05 | 0.00022 ± 5.1e-05 | 4.74e-05 ± 9.7e-06
A14U U31C | 0.00342 ± 0.00056 | 1.45 ± 0.34 | 0.00229 ± 0.00027 | 0.00303 ± 0.0006 | 0.000327 ± 3.9e-05 | 0.000956 ± 0.00011 | 0.00012 ± 1.9e-05
A14C G60A | < 1e-05 | – | – | – | – | < 1e-05 | < 1e-05
A15C A64G | 0.00792 ± 0.0013 | 2.98 ± 0.66 | 0.00387 ± 0.00068 | 0.00614 ± 0.00072 | 0.00037 ± 6.2e-05 | 0.00113 ± 0.00024 | 0.000125 ± 1.6e-05
A14G C61A | 1.1e-05 ± 4.8e-06 | – | – | – | – | – | –
G13U A52G | 7e-05 ± 5.1e-06 | 0.817 ± 0.37 | 6.21e-05 ± 1.3e-05 | 6.34e-05 ± 7e-06 | – | – | < 1e-05
A14C A33C | < 1e-05 | – | – | – | – | < 1e-05 | < 1e-05
A14C A53U | 0.00451 ± 0.00085 | 2.93 ± 0.79 | 0.00214 ± 0.00026 | 0.0035 ± 0.00029 | 0.000184 ± 2.7e-05 | 0.000737 ± 0.00012 | 7.8e-05 ± 7.6e-06
A14U U56A | 0.00382 ± 0.0017 | – | 0.00186 ± 0.00034 | 0.00407 ± 0.00084 | 0.00029 ± 4.9e-05 | 0.000692 ± 0.00012 | 0.000146 ± 3.2e-05

From the supplement of paper PMC7125110
